Measurements as given in patent US20210388087A1 (Chugai, published 2021).
Where a chain is given by its changes, count along the chain named.

B1: GLS3000 V27cS (antibody, name in Kabat numbering, V domains shown)
VH: QVQLVESGGGVVQPGRSLRLSCAASGFTFSNAWMHWVRQAPGKGLEWVAQIKAKSNNYATYYAESVKGRFTISRDDSKNSLYLQMNSLKTEDTAVYYCRYVHYGAYYGVDAWGQGTTVTVSS
VL: DIVMTQSPLSLPVTPGEPASISCRSSQSLSHSNRNTYLHWYQQKPGQAPRLLIYKVSNRFSGVPDRFSGSGSGTDFTLKISRVEAEDVGVYYCGQGTQVPYTFGQGTKLEIK
notes: one-arm IgG as m2
B2: GLS3000 V27cY (antibody, name in Kabat numbering, V domains shown)
VH: B1 VH
VL: B1 VL with S30Y
notes: one-arm IgG as m2
B3: GLS3000 V51D (antibody, name in Kabat numbering, V domains shown)
VH: B1 VH
VL: B1 VL with S30V, V56D
notes: one-arm IgG as m2
B4: GLS3000 V51E (antibody, name in Kabat numbering, V domains shown)
VH: B1 VH
VL: B1 VL with S30V, V56E
notes: one-arm IgG as m2
B5: GLS3000 V51G (antibody, name in Kabat numbering, V domains shown)
VH: B1 VH
VL: B1 VL with S30V, V56G
notes: one-arm IgG as m2
B6: GLS3000 V51I (antibody, name in Kabat numbering, V domains shown)
VH: B1 VH
VL: B1 VL with S30V, V56I
notes: one-arm IgG as m2
B7: GLS3000 V51P (antibody, name in Kabat numbering, V domains shown)
VH: B1 VH
VL: B1 VL with S30V, V56P
notes: one-arm IgG as m2
B8: GLS3000 V94A (antibody, name in Kabat numbering, V domains shown)
VH: B1 VH
VL: B1 VL with S30V, V99A
notes: one-arm IgG as m2
B9: GLS3000 V94D (antibody, name in Kabat numbering, V domains shown)
VH: B1 VH
VL: B1 VL with S30V, V99D
notes: one-arm IgG as m2
B10: GLS3000 V94E (antibody, name in Kabat numbering, V domains shown)
VH: B1 VH
VL: B1 VL with S30V, V99E
notes: one-arm IgG as m2
B11: GLS3000 V94F (antibody, name in Kabat numbering, V domains shown)
VH: B1 VH
VL: B1 VL with S30V, V99F
notes: one-arm IgG as m2
B12: GLS3000 V94G (antibody, name in Kabat numbering, V domains shown)
VH: B1 VH
VL: B1 VL with S30V, V99G
notes: one-arm IgG as m2
B13: GLS3000 V94H (antibody, name in Kabat numbering, V domains shown)
VH: B1 VH
VL: B1 VL with S30V, V99H
notes: one-arm IgG as m2
B14: GLS3000 V94I (antibody, name in Kabat numbering, V domains shown)
VH: B1 VH
VL: B1 VL with S30V, V99I
notes: one-arm IgG as m2
B15: GLS3000 V94K (antibody, name in Kabat numbering, V domains shown)
VH: B1 VH
VL: B1 VL with S30V, V99K
notes: one-arm IgG as m2
B16: GLS3000 V94L (antibody, name in Kabat numbering, V domains shown)
VH: B1 VH
VL: B1 VL with S30V, V99L
notes: one-arm IgG as m2
B17: GLS3000 V94M (antibody, name in Kabat numbering, V domains shown)
VH: B1 VH
VL: B1 VL with S30V, V99M
notes: one-arm IgG as m2
B18: GLS3000 V94N (antibody, name in Kabat numbering, V domains shown)
VH: B1 VH
VL: B1 VL with S30V, V99N
notes: one-arm IgG as m2
B19: GLS3000 V94P (antibody, name in Kabat numbering, V domains shown)
VH: B1 VH
VL: B1 VL with S30V, V99P
notes: one-arm IgG as m2
B20: GLS3000 V94Q (antibody, name in Kabat numbering, V domains shown)
VH: B1 VH
VL: B1 VL with S30V, V99Q
notes: one-arm IgG as m2
B21: GLS3000 V94R (antibody, name in Kabat numbering, V domains shown)
VH: B1 VH
VL: B1 VL with S30V, V99R
notes: one-arm IgG as m2
B22: GLS3000 V94S (antibody, name in Kabat numbering, V domains shown)
VH: B1 VH
VL: B1 VL with S30V, V99S
notes: one-arm IgG as m2
B23: GLS3000 V94T (antibody, name in Kabat numbering, V domains shown)
VH: B1 VH
VL: B1 VL with S30V, V99T
notes: one-arm IgG as m2
B24: GLS3000 V94W (antibody, name in Kabat numbering, V domains shown)
VH: B1 VH
VL: B1 VL with S30V, V99W
notes: one-arm IgG as m2
B25: GLS3000 V94Y (antibody, name in Kabat numbering, V domains shown)
VH: B1 VH
VL: B1 VL with S30V, V99Y
notes: one-arm IgG as m2
B26: GLS3000 Y32A (antibody, name in Kabat numbering, V domains shown)
VH: B1 VH
VL: B1 VL with S30V, Y37A
notes: one-arm IgG as m2
B27: GLS3000 Y32D (antibody, name in Kabat numbering, V domains shown)
VH: B1 VH
VL: B1 VL with S30V, Y37D
notes: one-arm IgG as m2
B28: GLS3000 Y32F (antibody, name in Kabat numbering, V domains shown)
VH: B1 VH
VL: B1 VL with S30V, Y37F
notes: one-arm IgG as m2
B29: GLS3000 Y32P (antibody, name in Kabat numbering, V domains shown)
VH: B1 VH
VL: B1 VL with S30V, Y37P
notes: one-arm IgG as m2
B30: GLS3000 Y96D (antibody, name in Kabat numbering, V domains shown)
VH: B1 VH
VL: B1 VL with S30V, Y101D
notes: one-arm IgG as m2
B31: GLS3000 Y96E (antibody, name in Kabat numbering, V domains shown)
VH: B1 VH
VL: B1 VL with S30V, Y101E
notes: one-arm IgG as m2
B32: GLS3000 Y96F (antibody, name in Kabat numbering, V domains shown)
VH: B1 VH
VL: B1 VL with S30V, Y101F
notes: one-arm IgG as m2
B33: GLS3000 Y96H (antibody, name in Kabat numbering, V domains shown)
VH: B1 VH
VL: B1 VL with S30V, Y101H
notes: one-arm IgG as m2

What follows are binders tested against T1, CD3 epsilon homodimer protein (UniProt P07766 23-126) (assay: SPR Biacore T200, CD3e homodimer on chip, vs unaltered GLS3000 antibody).
T1 construct: also called CD3 (CD3 epsilon)
T1 sequence (P07766 23-126): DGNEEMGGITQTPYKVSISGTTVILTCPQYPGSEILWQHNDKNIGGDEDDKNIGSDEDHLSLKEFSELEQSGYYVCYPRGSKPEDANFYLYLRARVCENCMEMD
With B1 the “ratio of amounts bound (Z=Y/X)” value was 0.51. With B2 the “ratio of amounts bound (Z=Y/X)” value was 0.77. With B3 the “ratio of amounts bound (Z=Y/X)” value was 0.33. In the case of B4, the “ratio of amounts bound (Z=Y/X)” value is reported as 0.64. In the case of B5, the “ratio of amounts bound (Z=Y/X)” value is reported as 0.84. For B6, the “ratio of amounts bound (Z=Y/X)” value was 0.81. B7 was tested, and the “ratio of amounts bound (Z=Y/X)” value was 0.32. For B8, the “ratio of amounts bound (Z=Y/X)” value was 1.05. B9 was tested, and the “ratio of amounts bound (Z=Y/X)” value was 0.89. B10 was tested, and the “ratio of amounts bound (Z=Y/X)” value was 0.5. For B11, the “ratio of amounts bound (Z=Y/X)” value was 0.71. B12 was tested, and the “ratio of amounts bound (Z=Y/X)” value was 0.48. With B13 the “ratio of amounts bound (Z=Y/X)” value was 0.78. In the case of B14, the “ratio of amounts bound (Z=Y/X)” value is reported as 0.66. In the case of B15, the “ratio of amounts bound (Z=Y/X)” value is reported as 0.57. For B16, the “ratio of amounts bound (Z=Y/X)” value was 0.44. In the case of B17, the “ratio of amounts bound (Z=Y/X)” value is reported as 0.44. With B18 the “ratio of amounts bound (Z=Y/X)” value was 1.05. With B19 the “ratio of amounts bound (Z=Y/X)” value was 1.26. B20 was tested, and the “ratio of amounts bound (Z=Y/X)” value was 0.76. B21 was tested, and the “ratio of amounts bound (Z=Y/X)” value was 0.66. B22 was tested, and the “ratio of amounts bound (Z=Y/X)” value was 0.93. B23 was tested, and the “ratio of amounts bound (Z=Y/X)” value was 0.93. B24 was tested, and the “ratio of amounts bound (Z=Y/X)” value was 0.58. In the case of B25, the “ratio of amounts bound (Z=Y/X)” value is reported as 0.63. In the case of B26, the “ratio of amounts bound (Z=Y/X)” value is reported as 0.24. For B27, the “ratio of amounts bound (Z=Y/X)” value was 0.23. B28 was tested, and the “ratio of amounts bound (Z=Y/X)” value was 0.29. For B29, the “ratio of amounts bound (Z=Y/X)” value was 0.24. B30 was tested, and the “ratio of amounts bound (Z=Y/X)” value was 0.17. In the case of B31, the “ratio of amounts bound (Z=Y/X)” value is reported as 0.17. In the case of B32, the “ratio of amounts bound (Z=Y/X)” value is reported as 1.17. For B33, the “ratio of amounts bound (Z=Y/X)” value was 0.23.
